From patent US20090118184A1 (UNIVERSITY OF ROCHESTER, published 2009)
Changes are numbered by the printed parent chain.

Assays:
Assay in all cases: cell-based or functional assay
[1] = target: T1, factor VIIIa A1/A3C1C2 dimer, E113A and E1984V (human, UniProt P00451 20-391; P00451 1709-2351)
T1 chain 1: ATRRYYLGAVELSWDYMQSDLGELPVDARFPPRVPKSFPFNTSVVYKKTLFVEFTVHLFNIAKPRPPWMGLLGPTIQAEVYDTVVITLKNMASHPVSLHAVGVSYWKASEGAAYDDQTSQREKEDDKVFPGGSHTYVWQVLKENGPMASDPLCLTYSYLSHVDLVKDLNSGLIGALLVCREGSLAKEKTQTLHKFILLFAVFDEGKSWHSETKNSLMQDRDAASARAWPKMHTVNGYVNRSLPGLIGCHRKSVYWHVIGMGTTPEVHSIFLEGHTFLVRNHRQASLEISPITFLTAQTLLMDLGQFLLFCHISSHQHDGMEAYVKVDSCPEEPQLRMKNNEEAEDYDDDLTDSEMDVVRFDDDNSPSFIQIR
T1 chain 2: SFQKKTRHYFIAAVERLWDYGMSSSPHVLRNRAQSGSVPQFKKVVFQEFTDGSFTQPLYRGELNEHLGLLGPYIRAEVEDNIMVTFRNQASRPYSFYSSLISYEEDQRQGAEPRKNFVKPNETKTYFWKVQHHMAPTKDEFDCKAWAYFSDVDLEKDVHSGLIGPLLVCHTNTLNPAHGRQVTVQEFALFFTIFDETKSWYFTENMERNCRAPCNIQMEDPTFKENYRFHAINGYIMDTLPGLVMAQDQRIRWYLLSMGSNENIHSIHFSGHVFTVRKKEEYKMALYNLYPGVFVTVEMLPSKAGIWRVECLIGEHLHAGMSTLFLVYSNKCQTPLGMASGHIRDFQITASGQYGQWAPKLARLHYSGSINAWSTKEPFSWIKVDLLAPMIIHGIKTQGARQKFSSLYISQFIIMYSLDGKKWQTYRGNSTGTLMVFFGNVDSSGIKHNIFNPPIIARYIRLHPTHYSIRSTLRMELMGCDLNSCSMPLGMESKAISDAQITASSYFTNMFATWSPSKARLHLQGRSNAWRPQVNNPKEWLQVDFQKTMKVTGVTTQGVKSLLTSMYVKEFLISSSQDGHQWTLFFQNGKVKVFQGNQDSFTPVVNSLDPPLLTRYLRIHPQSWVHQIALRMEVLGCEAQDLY

[2] = target: T2, factor VIIIa A1/A3C1C2 dimer, wild type (human, UniProt P00451 20-391; P00451 1709-2351)
T2 sequence 1: T1 chain 1 with A113E
T2 sequence 2: T1 chain 2 with V295E

[3] = target: T3, factor VIIIa A1/A3C1C2 dimer, Glu1984Ala (human, UniProt P00451 20-391; P00451 1709-2351)
T3 sequence 1: T1 chain 1 with A113E
T3 sequence 2: T1 chain 2 with V295A

[4] = target: T4, factor VIIIa A1/A3C1C2 dimer, Glu1984Val (human, UniProt P00451 20-391; P00451 1709-2351)
T4 sequence 1: T1 chain 1 with A113E
T4 sequence 2: T1 chain 2

B1: factor VIIIa A2 subunit, wild type (other)
chain: SVAKKHPKTWVHYIAAEEEDWDYAPLVLAPDDRSYKSQYLNNGPQRIGRKYKKVRFMAYTDETFKTREAIQHESGILGPLLYGEVGDTLLIIFKNQASRPYNIYPHGITDVRPLYSRRLPKGVKHLKDFPILPGEIFKYKWTVTVEDGPTKSDPRCLTRYYSSFVNMERDLASGLIGPLLICYKESVDQRGNQIMSDKRNVILFSVFDENRSWYLTENIQRFLPNPAGVQLEDPEFQASNIMHSINGYVFDSLQLSVCLHEVAYWYILSIGAQTDFLSVFFSGYTFKHKMVYEDTLTLFPFSGETVFMSMENPGLWILGCHNSDFRNRGMTALLKVSSCDKNTGDYYEDSYEDISAYLLSKNNAIEPR
Decay rate relative to wild type, Factor VIIIa (1.5 nM, factor IXa absent) [1]: 0.4 relative to wild type
Decay rate, Factor VIIIa (1.5 nM factor VIIIa, factor IXa absent) [1]: 0.0567 min⁻¹
Decay rate relative to wild type, Factor VIIIa (1.5 nM, factor IXa absent) [2]: 1 relative to wild type
Decay rate, Factor VIIIa (1.5 nM factor VIIIa, factor IXa absent) [2]: 0.14 min⁻¹
Decay rate relative to wild type, Factor VIIIa (1.5 nM, factor IXa absent) [3]: 0.41 relative to wild type
Decay rate, Factor VIIIa (1.5 nM factor VIIIa, factor IXa absent) [3]: 0.0574 min⁻¹
Decay rate relative to wild type, Factor VIIIa (1.5 nM, factor IXa absent) [4]: 0.34 relative to wild type
Decay rate, Factor VIIIa (1.5 nM factor VIIIa, factor IXa absent) [4]: 0.0471 min⁻¹
